Measurements from paper PMC10477112, “APP-BACE1 Interaction and Intracellular Localization Regulate Aβ Production in iPSC-Derived Cortical Neurons” (Cellular and Molecular Neurobiology, 2023).

Target: T1, APP-derived C-terminal fragment (APP-CTF) (human (endogenous in iPSC-derived NPCs …, UniProt P05067 672-770))
T1 construct: also called C-terminal APP; C-termAPP; source: endogenous, human iPSC-derived NPCs and cortical neurons, fixed cells
Experiment: proximity ligation; DuoLink PLA on fixed (4% PFA), permeabilised human iPSC-derived NPCs (day 45) and neurons (day 75); primary antibodies against APP (N-terminal or C-terminal), BACE1 and PSEN1; proximity of maximum 40 nm; PLA dot area divided by nuclear area
Conditions: partners not purified

B1: BACE1 (beta-secretase) (enzyme, UniProt P56817 46-501, looked up)
chain: ETDEEPEEPGRRGSFVEMVDNLRGKSGQGYYVEMTVGSPPQTLNILVDTGSSNFAVGAAPHPFLHRYYQRQLSSTYRDLRKGVYVPYTQGKWEGELGTDLVSIPHGPNVTVRANIAAITESDKFFINGSNWEGILGLAYAEIARPDDSLEPFFDSLVKQTHVPNLFSLQLCGAGFPLNQSEVLASVGGSMIIGGIDHSLYTGSLWYTPIRREWYYEVIIVRVEINGQDLKMDCKEYNYDKSIVDSGTTNLRLPKKVFEAAVKSIKAASSTEKFPDGFWLGEQLVCWQAGTTPWNIFPVISLYLMGEVTNQSFRITILPQQYLRPVEDVATSQDDCYKFAISQSSTGTVMGAVIMEGFYVVFDRARKRIGFAVSACHVHDEFRTAAVEGPFVTLDMEDCGYNIPQTDESTLMTIAYVMAAICALFMLPLCLMVCQWRCLRCLRQQHDDFADDISLLK
notes: BACE1, human, endogenous; also called β-secretase; source: endogenous, human iPSC-derived NPCs and cortical neurons, fixed cells; endogenous, SH-SY5Y cells, fixed
- fold PLA colocalization against flAPP/BACE1 in NPCs (calculated): ≥ 6.7 times
